Earlier results as cited in article PMC8461181.

Biological target: GnIH (Coturnix japonica) (UniProt Q9DGD4)
Assay: Scatchard analysis

Kd: 0.752 nM
Substance: GPR147 (from UniProt Q9GZQ6)
